From PMC11024197 (2024)

B1: PEX5 W5 peptide (peptide)
peptide: AQAEQWAAEFIQQQG
B2: PEX5 W1 peptide (peptide)
peptide: ALSENWAQEFLAAGD

Molecular target: T1, PEX14 NTD (1-104) (human, UniProt O75381 1-104)
T1 chain: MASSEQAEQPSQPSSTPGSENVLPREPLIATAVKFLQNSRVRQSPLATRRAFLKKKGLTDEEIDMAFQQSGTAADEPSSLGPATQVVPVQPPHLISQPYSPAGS
Assay: ITC

Binder	Kd [nM]
B1	21
B2	72
